Among the data in article doi:10.1101/2021.12.16.472980 are stoichiometry N values, retold here.

For this test, the target named is Suppressor of potassium transport defect 3 (SKD3), mature IMS form, residues 127-707 (human) (UniProt Q9H078). The test is described as follows: AUC.

On to “Suppressor of potassium transport defect 3 (SKD3), mature IMS form, residues 127-707 (from UniProt Q9H078 127-707) (enzyme)”, for which the stoichiometry N (as a rule, a count of units in the complex or per binding partner) stood at 12.
